T1: Vascular Endothelial Growth Factor (VEGF), receptor binding domain, VEGF_(8–109)
T1 chain: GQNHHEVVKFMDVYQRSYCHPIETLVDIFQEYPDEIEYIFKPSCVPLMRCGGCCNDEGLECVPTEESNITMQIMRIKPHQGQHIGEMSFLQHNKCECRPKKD


Assays:
[1] = target: T1, Vascular Endothelial Growth Factor …; assay: SPR; details: chain shown with the change; for response (Response Units): 0.5 µM Fab, parent: est. 690, read off a plot
[2] = target: T1, Vascular Endothelial Growth Factor …; assay: SPR (ΔG derived from KD); details: chain shown with the change; 30°C, phosphate buffer (pH 7.4); parent: est. -12 kcal/mol; read off a plot
[3] = target: T1, Vascular Endothelial Growth Factor …; assay: calculated from ΔG (SPR) and ΔH (ITC); details: chain shown with the change; 30°C, phosphate buffer (pH 7.4); parent: est. -4.4 kcal/mol; read off a plot
[4] = 30°C, Fab over immobilized antigen

Row | response (Response Units) [1] | Kd [1, 4] [nM] | koff [1, 4] | dG [2] [kcal/mol] | other: -TΔS [3] [kcal/mol] | Binder
1 | 600 | 3 | 10 10^-4 s-1 | -12 | -3.7 | bH1-44 Fab (affinity-improved variant of bH1) HC:R50A; HC:R58A (protein) chain 1: EVQLVESGGGLVQPGGSLRLSCAASGFNISGTYIHWVRQAPGKGLEWVAAIYPSEGYTAYADSVKGRFTISADTSKNTAYLQMNSLRAEDTAVYYCSRWVGVGFYAMDYWGQGTLVTVSS chain 2: DIQMTQSPSSLSASVGDRVTITCRASQNIAKTISGYVAWYQQKPGKAPKLLIYWGSFLYSGVPSRFSGSGSGTDFTLTISSLQPEDFATYYCQQHYSSPPTFGQGTKVEIK
2 | 60 | – | – | – | – | bH1-44 Fab (affinity-improved variant of bH1) LC:Y32A (protein) chain 1: EVQLVESGGGLVQPGGSLRLSCAASGFNISGTYIHWVRQAPGKGLEWVARIYPSEGYTRYADSVKGRFTISADTSKNTAYLQMNSLRAEDTAVYYCSRWVGVGFYAMDYWGQGTLVTVSS chain 2: DIQMTQSPSSLSASVGDRVTITCRASQNIAKTISGAVAWYQQKPGKAPKLLIYWGSFLYSGVPSRFSGSGSGTDFTLTISSLQPEDFATYYCQQHYSSPPTFGQGTKVEIK

Source: publication PMC3081289
